For test [1], the target named is SARS-CoV-2 S protein S1 (SARS-CoV-2). Kind of test: ELISA.
Test [2] has as its target SARS-CoV-2 S protein (entire S ectodomain) as used with m31A7 (SARS-CoV-2, UniProt P0DTC2 14-1213). Kind of test: ELISA.
Test [3] has as its target SARS-CoV-2 WT S protein expressed on HEK293T cells (SARS-CoV-2, UniProt P0DTC2). In words: FACS.

The values that follow come from PMC9802656 (2022).

B1: monoclonal antibody m31A7 (IgG) (antibody, V domains shown)
VH: EVQLQQSGPEMVKPGASVKISCKTSGYTFTEYTIYWVKQSHGKSLEWLGGINPNIGDTTYNQKFKGKATLTVDTSSSTAYMELRSLTSEDSAVYYCAREVYNYSFAYWGQGTLVTVSA
VL: DIVMSQSPSSLAVSVGEKVTMSCKSSQSLLYSSNQKNYLAWYQQKLGQTPKLLIYWASSRESGVPDRFTGSGSGTDFTLTISSVRAEDLAVYYCQQYYRYPLTFGVGTKLELK
On to B1, for which the EC50 in test [1] is 0.0235 nM; in test [2] it was 0.0312 nM; in test [3] it was 0.0685 nM.
